Data on two molecules can be found in US20220041691A1, “METHODS FOR DIAGNOSING OR TREATING POST-TRAUMATIC STRESS DISORDER, AND COMPOSITIONS THEREFOR” (Centre for Addiction and Mental Health, priority 2018, published 2022).

B1: human FK506 Binding Protein 51 (FKBP51) (other)
chain: MTTDEGAKNNEESPTATVAEQGEDITSKKDRGVLKIVKRVGNGEETPMIGDKVYVHYKGKLSNGKKFDSSHDRNEPFVFSLGKGQVIKAWDIGVATMKKGEICHLLCKPEYAYGSAGSLPKIPSNATLFFEIELLDFKGEDLFEDGGIIRRTKRKGEGYSNPNEGATVEIHLEGRCGGRMFDCRDVAFTVGEGEDHDIPIGIDKALEKMQREEQCILYLGPRYGFGEAGKPKFGIEPNAELIYEVTLKSFEKAKESWEMDTKEKLEQAAIVKEKGTVYFKGGKYMQAVIQYGKIVSWLEMEYGLSEKESKASESFLLAAFLNLAMCYLKLREYTKAVECCDKALGLDSANEKGLYRRGEAQLLMNEFESAKGDFEKVLEVNPQNKAARLQISMCQKKAKEHNERDRRIYANMFKKFAEQDAKEEANKAMGKKTSEGVTNEKGTDSQAMEEEKPEGHV
notes: Endogenous protein in peripheral blood (lymphocyte) lysate of patients and controls
B2: human glucocorticoid receptor (GR) (receptor)
chain: MDSKESLTPGREENPSSVLAQERGDVMDFYKTLRGGATVKVSASSPSLAVASQSDSKQRRLLVDFPKGSVSNAQQPDLSKAVSLSMGLYMGETETKVMGNDLGFPQQGQISLSSGETDLKLLEESIANLNRSTSVPENPKSSASTAVSAAPTEKEFPKTHSDVSSEQQHLKGQTGTNGGNVKLYTTDQSTFDILQDLEFSSGSPGKETNESPWRSDLLIDENCLLSPLAGEDDSFLLEGNSNEDCKPLILPDTKPKIKDNGDLVLSSPSNVTLPQVKTEKEDFIELCTPGVIKQEKLGTVYCQASFPGANIIGNKMSAISVHGVSTSGGQMYHYDMNTASLSQQQDQKPIFNVIPPIPVGSENWNRCQGSGDDNLTSLGTLNFPGRTVFSNGYSSPSMRPDVSSPPSSSSTATTGPPPKLCLVCSDEASGCHYGVLTCGSCKVFFKRAVEGQHNYLCAGRNDCIIDKIRRKNCPACRYRKCLQAGMNLEARKTKKKIKGIQQATTGVSQETSENPGNKTIVPATLPQLTPTLVSLLEVIEPEVLYAGYDSSVPDSTWRIMTTLNMLGGRQVIAAVKWAKAIPGFRNLHLDDQMTLLQYSWMFLMAFALGWRSYRQSSANLLCFAPDLIINEQRMTLPCMYDQCKHMLYVSSELHRLQVSYEEYLCMKTLLLLSSVPKDGLKSQELFDEIRMTYIKELGKAIVKREGNSSQNWQRFYQLTKLLDSMHEVVENLLNYCFQTFLDKTMSIEFPEMLAEIITNQIPKYSNGNIKKLLFHQK
notes: as for B1

The target of assay [1] is B2. The assay can be described thus: co-immunoprecipitation with anti-FKBP51 antibody from human peripheral blood protein, Western blot for GR. Background: A western blot detects proteins with antibodies after separation by electrophoresis.
The target in assay [2] is B1. Description: co-immunoprecipitation from human peripheral blood samples, densitometry, n=22.
Assay [3] has as its target B1. Description: co-immunoprecipitation from human peripheral blood samples, densitometry, n=21.

Consider B1, for which the binding result in assay [1] is given as “binds”.

Turning to B2, the “GR-FKBP51 complex level, PTSD patients relative to healthy controls (CTRL = 1)” value in assay [2] was 1.41 fold of control. For the same molecule, the “GR-FKBP51 complex level, PTSD patients relative to trauma controls (Trauma = 1)” value in assay [3] is 1.46 fold of control.
